# B1: anti-PACAP antibody Ab12.H (antibody, human IgG1, kappa, N297A, V domains shown)
# VH: EVQLVESGGGLVQPGGSLRLSCAASGFSLSSYAMGWVRQAPGKGLEWIGDISTYGTTDYASWVYGRFTISRDNSKNTVYLQMNSLRAEDTAVYFCARDYWLSLWGQGTLVTVSS
# VL: AAQLTQSPSTLSASVGDRVTITCQSSQSVYDNNALAWYQQKPGKAPKLLIYAASTLASGVPSRFSGSGSGTEFTLTISSLQPDDFATYYCLGGYYDPADNAFGGGTKVEIKR
# notes: humanized form of Ab12, full length
# B2: anti-PACAP antibody Ab1.H (antibody, human IgG1, kappa, N297A, V domains shown)
# VH: EVQLVESGGGLVQPGGSLRLSCAASGFTVSSAVMNWVRQAPGKGLEWIGSIVASGTTYYASSANGRFTISRDNSKNTLYLQMNSLRAEDTAVYYCARGGGEFFIWGQGTLVTVSS
# VL: DIQMTQSPSTLSASVGDRVTITCQSSESVYSNYLSWYQQKPGKAPKFLIYQASNLASGVPSRFSGSGSGTEFTLTISSLQPDDFATYYCAGGYSENIVGFGGGTKVEIKR
# notes: humanized form of Ab1, full length
# Experiments:
# human PACAP38 [1] = molecular target: T1, human PACAP38 (human, not fully specified; C-terminal lysine is amidated; N-terminal or C-terminal biotin in the HTRF and PC-12 cell binding assays); test: SPR, Ab immobilised
# T1 construct: synthetic peptide, bought; also called huPACAP (1-38)
# T1 peptide: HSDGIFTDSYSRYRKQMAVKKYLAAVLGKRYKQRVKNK
# How it was run: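 SPR with antibody amine-coupled to the chip and human PACAP38 flowed as analyte at 1.23–100 nM in PBST containing 0.25 M arginine, 0.2 mg/ml BSA and 0.005% azide, pH 7. Association lasted 2–4 min and dissociation 3–120 min. Kinetics were fitted to a 1:1 Langmuir model.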
# human VIP = molecular target: T2, human VIP (human); test: SPR, Ab immobilised
# T2 construct: also called Vasoactive Intestinal Peptide
# T2 peptide: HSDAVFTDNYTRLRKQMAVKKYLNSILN
# human PACAP27 [2] = molecular target: T3, human PACAP27 (human, C-terminal leucine is amidated; 125I-labelled in Example 10); test: SPR, Ab immobilised
# T3 peptide: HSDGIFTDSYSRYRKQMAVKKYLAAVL
# human PACAP27 [3] = molecular target: T3, human PACAP27; test: inhibition of 0.1 nM 125I-PACAP27 binding to human PAC1-R membranes
# Protocol: To identify antibodies that block PACAP27 binding to PAC1-R, antibodies at an initial concentration of 30 nM were diluted in incubation buffer (50 mM Hepes pH 7.4, 1 mM CaCl₂, 5 mM MgCl₂, 0.2% BSA) and serial 1:3 dilutions were performed. Antibody dilutions (30 nM, 10 nM, 3 nM, 1 nM, 0.3 nM, 0.1 nM, 0.03 nM, 0.01 nM, 0.003 nM and 0.001 nM) were then mixed and pre-incubated at 25° C. for 30 minutes with 0.1 nM of ¹²⁵I-labelled PACAP27 in incubation buffer. The antibody: ¹²⁵I-labelled PACAP27 mixture was then added to 0.5 μg aliquots of cell membranes derived from Chem-1 cells expressing human recombinant PAC1-R long isoform in incubation buffer. The mixture was then incubated for 1 hour at 25° C. Following incubation, the samples were filtered and washed. Afterward, the filters were counted to quantitate ¹²⁵I-labelled PACAP27. As an experimental control, non-specific binding to the cell membranes was estimated using 0.1 μM of […] PACAP27.
# human PACAP38 [4] = molecular target: T1, human PACAP38; test: cell-based or functional assay
# human PACAP27 [5] = molecular target: T3, human PACAP27; test: cell-based or functional assay
# human PACAP38 [6] = molecular target: T1, human PACAP38; test: inhibition of 30 nM biotin-PACAP38 binding to PC-12 cells, TRF
# Protocol: To identify antibodies that block PACAP38 binding to PAC1-R-expressing cells, adherent PC-12 cells (ATCC, Manassas, Va.) expressing PAC1-R were used in a Europium-based PAC1-R expressing cells binding assay.
# Antibody solutions were incubated with N-terminal biotinylated PACAP38 at 10× the final concentration (100 nM or 30 nM) for 1 hr, then added to PC-12 cells that were plated 24 hrs. prior in black clear bottom 96 well plates (COSTAR™, Corning Incorporated, Corning, N.Y.) and further incubated for 1 hr at room temperature. After three washes, the cells were incubated with 20 μl Europium-labeled streptavidin (PerkinElmer, Waltham, Mass.) for 1 hr at room temperature. Cells were washed three times, then 20 μl DELFIA® Enhancement solution (PerkinElmer, Waltham, Mass.) was added to each well and incubated for 15 minutes with gentle shaking. Plates were read (Time Resolved Fluorescence (“TRF”)) on SPECTRAMAX® (Molecular Devices, Sunnyvale, Calif.) plate reader.
# FIGS. 14A-14BB are representative of the inhibition curves obtained by this method (results are shown for Ab1, Ab2, Ab3, Ab4, Ab5, Ab6, Ab7, Ab8, Ab9, Ab10, Ab11, Ab12, Ab13, Ab14, Ab15, Ab16, Ab17, Ab18, Ab19, Ab1.H, Ab10.H, Ab22, Ab23, Ab3.H, Ab4.H, Ab5.H, Ab9.H, and Ab12.H, respectively) wherein the PAC1-R expressing cells were PC-12 cells.
# human PACAP38 [7] = molecular target: T1, human PACAP38; test: cell-based or functional assay
# human PACAP38 [8] = molecular target: T1, human PACAP38; test: cell-based or functional assay
# human PACAP38 [9] = molecular target: T1, human PACAP38; test: HTRF binding, biotin-PACAP38
# How it was run: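 Antibody dilution series (top 100 nM final) incubated with N- or C-terminal biotinylated PACAP38 (35 nM final), alone or with 350 nM PACAP27 or VIP. HTRF with Eu³⁺ anti-human Fc donor and d2-streptavidin acceptor, 1 h at room temperature, read at 620/665 nm; EC₅₀ from binding curves.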
Kd (human PACAP38 [1]),koff (human PACAP38 [1]),kon (human PACAP38 [1]),Kd (human VIP),koff (human VIP),kon (human VIP),Kd (human PACAP27 [2]),koff (human PACAP27 [2]),kon (human PACAP27 [2]),IC50 (human PACAP27 [3]),"IC50, 0.1 nM PACAP38-induced PAC1-R mediated cAMP increase (human PACAP38 [4])","IC50, 0.1 nM PACAP27-induced PAC1-R mediated cAMP increase (human PACAP27 [5])",IC50 (human PACAP38 [6]),"IC50, 1 nM PACAP38-induced human VPAC2-R mediated cAMP increase (human PACAP38 [7])","IC50, 5 nM PACAP38-induced human VPAC1-R mediated cAMP increase (human PACAP38 [8])",EC50 (human PACAP38 [9]),Binder
≤ 0.026 nM,≤ 1e-05 s⁻¹,380000 M⁻¹ s⁻¹,51 nM,0.014 s⁻¹,280000 M⁻¹ s⁻¹,0.3 nM,7.9e-05 s⁻¹,260000 M⁻¹ s⁻¹,0.16 nM,0.114 nM,0.0863 nM,68.1 nM,0.653 nM,1.28 nM,,B1
≤ 0.021 nM,≤ 1e-05 s⁻¹,470000 M⁻¹ s⁻¹,4800 nM,0.18 s⁻¹,38000 M⁻¹ s⁻¹,≤ 0.013 nM,≤ 1e-05 s⁻¹,760000 M⁻¹ s⁻¹,0.7 nM,0.26 nM,0.0577 nM,56.3 nM,0.983 nM,1.02 nM,0.46 nM,B2

# From patent US20190233498A1 (H LUNDBECK A S, published 2019)
